Experimental data from publication PMC3057836 (The Journal of Biological Chemistry, 2010).

B1: cytoplasmic fragment of SpoIISA (CSpoIISA) as found in the crystal of the CSpoIISA·SpoIISB complex (domain or fragment)
chain: GSELETDTREILEENNEMLHMYLNRLKTYQYLLKNEPIHVYYGSIDAYAEGIDKLLKTYADKMNLTASLCHYSTQADKDRLTEHMDDPADVQTRLDRKDVYYDQYGKVVLIPFTIETQNYVIKLTSDSIVTEFDYLLFTSLTSIYDLVLPIEEEGEG
modifications: selenomethionine-substituted
B2: CSpoIISA (His6 tag-free cytosolic domain of SpoIISA) (domain or fragment)
chain: FIFLSAYVKKLAGSELETDTREILEENNEMLHMYLNRLKTYQYLLKNEPIHVYYGSIDAYAEGIDKLLKTYADKMNLTASLCHYSTQADKDRLTEHMDDPADVQTRLDRKDVYYDQYGKVVLIPFTIETQNYVIKLTSDSIVTEFDYLLFTSLTSIYDLVLPIEEEGEG

Legend:
crystal structure = target: the molecule itself; assay: crystal structure
SEC = target: the molecule itself; assay: SEC

Protein | stoichiometry N (crystal structure) | stoichiometry N (SEC)
B1 | 2 | 
B2 |  | 2
